Measurements taken from patent US20050282743A1, “Molecular interactions in cells” (Arbor Vita Corporation, priority 2001, published 2005).

What was measured:
[1] = biological target: T1, GST-Atrophin-1 Interacting Protein PDZ domain 1 (Rattus norvegicus (Rat)), O88382; experiment: G' assay; further: key of the grades not given here
[2] = biological target: T2, GST-BAI-1 Associated Protein PDZ domain 2 (Mus musculus (Mouse)), Q6RHR9; experiment: G' assay; further: key of the grades not given here
T2 sequence (Q6RHR9 455-558): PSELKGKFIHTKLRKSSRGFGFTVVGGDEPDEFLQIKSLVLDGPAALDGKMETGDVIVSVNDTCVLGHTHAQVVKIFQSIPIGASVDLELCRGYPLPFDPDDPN

[3] = biological target: GST-DLG1 PDZ domains 1, 2 (Homo sapiens), Q12959; experiment: G' assay; further: key of the grades not given here
[4] = biological target: T3, GST-EZRIN Binding Protein 50 PDZ domain 1 (Homo sapiens (Human)), O14745; experiment: G' assay; further: key of the grades not given here
T3 chain: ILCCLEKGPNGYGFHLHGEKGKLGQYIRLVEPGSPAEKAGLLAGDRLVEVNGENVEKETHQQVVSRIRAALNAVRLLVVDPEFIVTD

[5] = biological target: T4, GST-EZRIN Binding Protein 50 PDZ domain 2 (Homo sapiens (Human)), O14745; experiment: G' assay; further: key of the grades not given here
T4 chain: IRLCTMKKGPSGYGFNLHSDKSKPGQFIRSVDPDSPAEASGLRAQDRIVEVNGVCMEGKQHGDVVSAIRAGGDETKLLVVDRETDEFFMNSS

[6] = biological target: T5, GST-INADL PDZ domain 8 (Homo sapiens (Human)), Q8NI35; experiment: G' assay; further: key of the grades not given here
T5 chain: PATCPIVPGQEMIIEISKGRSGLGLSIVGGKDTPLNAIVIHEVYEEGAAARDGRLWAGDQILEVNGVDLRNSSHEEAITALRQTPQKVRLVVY

[7] = biological target: T6, GST-KIAA0807(S) PDZ domain 1 (Homo sapiens (Human)), Q6P0Q8; experiment: G' assay; further: key of the grades not given here
T6 chain: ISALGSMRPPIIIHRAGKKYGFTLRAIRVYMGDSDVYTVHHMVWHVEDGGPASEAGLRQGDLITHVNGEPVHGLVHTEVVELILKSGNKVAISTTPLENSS

[8] = biological target: GST-KIAA1634 PDZ domain 1 (Homo sapiens (Human)), Q5TCQ9; experiment: G' assay; further: key of the grades not given here
Chain of GST-KIAA1634 PDZ domain 1 (Homo sapiens (Human)), Q5TCQ9 (Q5TCQ9 401-502): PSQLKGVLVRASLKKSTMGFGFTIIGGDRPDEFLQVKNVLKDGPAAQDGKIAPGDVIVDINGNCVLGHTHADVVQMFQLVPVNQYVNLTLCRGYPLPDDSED

[9] = biological target: GST-KIAA807 [GST: P08515]; experiment: G' assay; further: key of the grades not given here
Chain of GST-KIAA807 [GST: P08515] (P08515 whole entry, the tested form may be a part): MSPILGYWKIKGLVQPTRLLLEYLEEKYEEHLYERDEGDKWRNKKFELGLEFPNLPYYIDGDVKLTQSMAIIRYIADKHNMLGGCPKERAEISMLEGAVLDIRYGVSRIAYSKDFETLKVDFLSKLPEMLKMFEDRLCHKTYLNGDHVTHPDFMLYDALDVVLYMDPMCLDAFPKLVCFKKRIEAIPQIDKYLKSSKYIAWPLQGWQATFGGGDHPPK

[10] = biological target: T7, GST-MUPP1 PDZ domain 10 (Homo sapiens (Human)), O75970; experiment: G' assay; further: key of the grades not given here
T7 chain: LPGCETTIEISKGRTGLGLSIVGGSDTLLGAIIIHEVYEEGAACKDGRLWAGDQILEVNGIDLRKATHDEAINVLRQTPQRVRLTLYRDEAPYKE

[11] = biological target: T8, GST-NOS1 PDZ domain 1 (Homo sapiens (Human)), P29475; experiment: G' assay; conditions: remark: other sources report otherwise; further: key of the grades not given here
T8 chain: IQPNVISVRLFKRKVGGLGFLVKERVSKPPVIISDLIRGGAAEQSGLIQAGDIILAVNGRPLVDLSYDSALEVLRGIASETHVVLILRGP

[12] = biological target: T9, GST-NeDLG PDZ domains 1, 2, Q92796; experiment: G' assay; further: key of the grades not given here
T9 chain: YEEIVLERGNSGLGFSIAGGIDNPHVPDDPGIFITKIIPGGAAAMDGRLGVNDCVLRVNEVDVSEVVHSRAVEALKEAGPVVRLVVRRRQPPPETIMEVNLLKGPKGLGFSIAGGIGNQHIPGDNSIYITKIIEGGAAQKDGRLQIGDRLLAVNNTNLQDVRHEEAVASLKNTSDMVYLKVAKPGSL

[13] = biological target: T10, GST-Outer Membrane PDZ domain 1 (Homo sapiens (Human)), P57105; experiment: G' assay; further: key of the grades not given here
T10 chain: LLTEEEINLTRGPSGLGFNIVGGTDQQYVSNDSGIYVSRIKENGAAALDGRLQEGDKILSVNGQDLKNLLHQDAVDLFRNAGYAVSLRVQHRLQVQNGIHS

[14] = biological target: GST-PIST PDZ domain 1 (Mus musculus (Mouse)), Q8BH60; experiment: G' assay; further: key of the grades not given here
[15] = biological target: GST-PSD95 PDZ domains 1, 2, 3 (Homo sapiens), P78352; experiment: G' assay; further: key of the grades not given here
Chain of GST-PSD95 PDZ domains 1, 2, 3 (Homo sapiens), P78352 (P78352 62-395): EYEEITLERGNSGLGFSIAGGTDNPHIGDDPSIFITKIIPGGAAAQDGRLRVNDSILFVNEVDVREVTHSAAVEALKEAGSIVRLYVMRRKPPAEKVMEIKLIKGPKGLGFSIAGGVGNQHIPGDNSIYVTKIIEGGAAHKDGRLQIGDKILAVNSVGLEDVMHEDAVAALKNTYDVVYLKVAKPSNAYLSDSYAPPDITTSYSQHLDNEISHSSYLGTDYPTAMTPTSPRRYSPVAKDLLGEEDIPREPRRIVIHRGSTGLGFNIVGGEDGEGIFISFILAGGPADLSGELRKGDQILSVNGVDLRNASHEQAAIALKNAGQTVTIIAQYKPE

[16] = biological target: T11, GST-Shank 1 PDZ domain 1 (Homo sapiens (Human)), Q9UPX8; experiment: G' assay; further: key of the grades not given here
T11 chain: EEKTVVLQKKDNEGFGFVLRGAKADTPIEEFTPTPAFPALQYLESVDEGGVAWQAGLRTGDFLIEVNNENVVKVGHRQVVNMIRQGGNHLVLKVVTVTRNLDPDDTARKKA

[17] = biological target: T12, GST-Shank 3 PDZ domain 1 (human (hypothetical, computer cloned)), Q9BYB0; experiment: G' assay; further: key of the grades not given here
T12 chain: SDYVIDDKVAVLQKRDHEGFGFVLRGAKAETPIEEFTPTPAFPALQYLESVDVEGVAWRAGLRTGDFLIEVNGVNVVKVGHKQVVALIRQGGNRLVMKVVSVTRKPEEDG

[18] = biological target: T13, GST-TIP1 PDZ domain 1 (Table 9 insert) (Homo sapiens (Human)), O14907; experiment: G' assay; further: key of the grades not given here
T13 chain: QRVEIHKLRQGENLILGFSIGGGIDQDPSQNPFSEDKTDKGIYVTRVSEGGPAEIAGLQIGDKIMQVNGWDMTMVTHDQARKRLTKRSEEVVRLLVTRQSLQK

[19] = biological target: T14, GST-ZO-1 PDZ domain 1 (Rattus norvegicus (Rat)), A0A0G2; experiment: G' assay; further: key of the grades not given here
T14 chain: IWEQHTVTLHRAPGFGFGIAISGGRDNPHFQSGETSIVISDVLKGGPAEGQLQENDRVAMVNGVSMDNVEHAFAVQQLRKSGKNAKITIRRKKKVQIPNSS

[20] = biological target: T15, GST-ZO-2 PDZ domain 1 (Homo sapiens (Human)), Q9UDY2; experiment: G' assay; further: key of the grades not given here
T15 chain: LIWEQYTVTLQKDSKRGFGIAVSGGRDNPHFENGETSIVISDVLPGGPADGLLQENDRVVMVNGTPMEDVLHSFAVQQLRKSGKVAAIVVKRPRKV

[21] = biological target: T1, GST-Atrophin-1 Interacting Protein PDZ …; experiment: G assay titration, PDZ 1 ug/ml
[22] = biological target: T7, GST-MUPP1 PDZ domain 10 (Homo sapiens …); experiment: G assay titration, PDZ 1 ug/ml
[23] = biological target: T11, GST-Shank 1 PDZ domain 1 (Homo sapiens …); experiment: G assay titration, PDZ 1 ug/ml
[24] = biological target: T14, GST-ZO-1 PDZ domain 1 (Rattus …); experiment: G assay titration, PDZ 1 ug/ml
[25] = biological target: T15, GST-ZO-2 PDZ domain 1 (Homo sapiens …); experiment: G assay titration, PDZ 1 ug/ml
[26] = biological target: T6, GST-KIAA0807(S) PDZ domain 1 (Homo …); experiment: G assay titration, PDZ 5 ug/ml
[27] = biological target: GST-KIAA807 [GST: P08515]; experiment: G assay titration, PDZ 5 ug/ml
[28] = biological target: T2, GST-BAI-1 Associated Protein PDZ domain …; experiment: G assay titration, PDZ 0.1 ug/ml
[29] = biological target: GST-KIAA1634 PDZ domain 1 (Homo sapiens (Human)), Q5TCQ9; experiment: G assay titration, PDZ 0.3 ug/ml
[30] = biological target: GST-PIST PDZ domain 1 (Mus musculus (Mouse)), Q8BH60; experiment: G assay titration, PDZ 0.5 ug/ml
[31] = biological target: T15, GST-ZO-2 PDZ domain 1 (Homo sapiens …); experiment: G assay with desipramine or nortryptilline against no drug
[32] = biological target: T16, GST-FLJ 10324 PDZ domain 1 [GST: P08515]; experiment: G' assay; further: key of the grades not given here
T16 chain: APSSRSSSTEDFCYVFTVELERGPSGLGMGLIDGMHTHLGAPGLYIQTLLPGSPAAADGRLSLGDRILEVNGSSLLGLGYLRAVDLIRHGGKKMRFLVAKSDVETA

[33] = biological target: T17, GST-HEMBA 1003117 PDZ domain 1 (Homo sapiens (Human)), Q96JH8; experiment: G' assay; further: key of the grades not given here
T17 chain: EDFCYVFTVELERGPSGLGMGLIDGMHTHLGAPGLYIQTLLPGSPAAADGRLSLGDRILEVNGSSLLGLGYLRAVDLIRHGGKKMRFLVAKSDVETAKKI

[34] = biological target: T18, GST-PICK1 PDZ domain 1 (Bos taurus (Bovine)), Q2T9M1; experiment: G' assay; further: key of the grades not given here
T18 chain: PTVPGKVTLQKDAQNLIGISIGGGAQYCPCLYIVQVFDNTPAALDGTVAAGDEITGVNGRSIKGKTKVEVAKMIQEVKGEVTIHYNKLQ

[35] = biological target: T19, GST-PTPL1 PDZ domain 4 (Homo sapiens (Human)), Q12923; experiment: G' assay; further: key of the grades not given here
T19 chain: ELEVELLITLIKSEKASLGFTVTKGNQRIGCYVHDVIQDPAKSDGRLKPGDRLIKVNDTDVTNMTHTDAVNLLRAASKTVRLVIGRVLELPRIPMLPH

[36] = biological target: T20, GST-ZO-1 PDZ domain 2 (Rattus norvegicus (Rat)), A0A0G2; experiment: G' assay; further: key of the grades not given here
T20 chain: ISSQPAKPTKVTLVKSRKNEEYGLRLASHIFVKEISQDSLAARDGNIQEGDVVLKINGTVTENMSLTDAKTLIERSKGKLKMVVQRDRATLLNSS

[37] = biological target: T16, GST-FLJ 10324 PDZ domain 1 [GST: P08515]; experiment: G assay titration, PDZ 1 ug/ml
[38] = biological target: T17, GST-HEMBA 1003117 PDZ domain 1 (Homo …); experiment: G assay titration, PDZ 5 ug/ml
[39] = biological target: GST-KIAA1634 PDZ domain 1 (Homo sapiens (Human)), Q5TCQ9; experiment: G assay titration, PDZ 5 ug/ml
[40] = biological target: T18, GST-PICK1 PDZ domain 1 (Bos taurus …); experiment: G assay titration, PDZ 5 ug/ml
[41] = biological target: T19, GST-PTPL1 PDZ domain 4 (Homo sapiens …); experiment: G assay titration, PDZ 5 ug/ml

T1 sequence (O88382 408-511): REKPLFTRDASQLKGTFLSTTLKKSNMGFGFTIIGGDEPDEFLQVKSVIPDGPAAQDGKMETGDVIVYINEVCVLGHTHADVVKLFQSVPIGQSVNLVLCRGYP

B1: DNAM-1 (peptide)
peptide: TREDIYVNYPTFSRRPKTRV
modifications: not checked
- Classification [1]: 3 A450 class
- Classification [2]: 5 A450 class
- Classification [3]: 1 A450 class
- Classification [4]: 1 A450 class
- Classification [5]: 1 A450 class
- Classification [6]: 5 A450 class
- Classification [7]: 3 A450 class
- Classification [8]: 5 A450 class
- Classification [9]: 3 A450 class
- Classification [10]: 4 A450 class
- Classification [11]: 1 A450 class
- Classification [12]: 2 A450 class
- Classification [13]: 1 A450 class
- Classification [14]: 4 A450 class
- Classification [15]: 2 A450 class
- Classification [16]: 5 A450 class
- Classification [17]: 2 A450 class
- Classification [18]: 1 A450 class
- Classification [19]: 2 A450 class
- Classification [20]: 3 A450 class
- Kd [21]: 3000 nM
- Kd [22]: 2500 nM
- Kd [23]: 5000 nM
- Kd [24]: 5000 nM
- Kd [25]: 3000 nM
- Kd [26]: 2000 nM
- Kd [27]: 2000 nM
- Kd [28]: 4000 nM
- Kd [29]: 1000 nM
- Kd [30]: 2500 nM
- fold decrease of binding with drug [31]: 4.2 fold

B2: Dopamine transporter (peptide)
peptide: RELVDRGEVRQFTLRHWLKV
modifications: not checked
- Classification [32]: 5 A450 class
- Classification [33]: 5 A450 class
- Classification [7]: 4 A450 class
- Classification [8]: 3 A450 class
- Classification [9]: 4 A450 class
- Classification [34]: 2 A450 class
- Classification [35]: 3 A450 class
- Classification [36]: 1 A450 class
- Kd [37]: 300 nM
- Kd [38]: 300 nM
- Kd [26]: 400 nM
- Kd [39]: 900 nM
- Kd [27]: 400 nM
- Kd [40]: 900 nM
- Kd [41]: 400 nM
